Series [1] has as its target T1, VEGF 1 ZFP (NLS-ZFP-VP16-FLAG) (synthetic construct (SP1 backbone)).
T1 chain: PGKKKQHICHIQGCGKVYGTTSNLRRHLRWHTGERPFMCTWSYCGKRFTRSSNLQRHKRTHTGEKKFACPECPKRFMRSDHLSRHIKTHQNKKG
As to the kind of experiment: cell_activity; 293 cells, integrated reporter; 6 in Table 8.

Series [2] addresses T1, VEGF 1 ZFP (NLS-ZFP-VP16-FLAG). As to the kind of experiment: ChIP anti-FLAG, 293 cells, GAPDH-normalized; 8.3 in Table 7. The method, then: (§1) Immunoprecipitated DNA, obtained as described in Example 11, was used as template in a real-time amplification assay. Three DNA targets were assayed: the integrated reporter gene containing four tandem VEGF 3a/1 binding sites (pGL-VFR), the endogenous VEGF gene, and the endogenous glyceraldehyde phosphate dehydrogenase (GAPDH) gene (which was used as a control for nonspecific precipitation).
(§2) The values obtained for the endogenous VEGF gene (VEGF) and for the integrated reporter containing VEGF target sites (pGL-VFR), normalized to the values obtained for GAPDH, were then normalized to the values obtained for cells transfected with NVF, a construct that lacks a zinc finger DNA-binding domain, to obtain a value for the degree to which VEGF sequences were enriched in immunoprecipitates from cells transfected with a construct encoding a ZFP. […] Furthermore, sequences from an integrated reporter gene containing VEGF target sequences were enriched 170-fold by the VEGF 3a/1 protein and approximately 8-fold by the three-finger VEGF 1 protein.

Series [3] has the same target. Put plainly: cell_activity; 293 cells; VEGF protein 1.5; mRNA 2.7 and protein 3.1 in Table 9. An excerpt: Activation of the integrated luciferase reporter gene containing VEGF target sites and immunoprecipitation of reporter sequences by the VEGF 1 and VEGF 3a/1 proteins, as shown in examples 10 and 11, provided evidence that these exogenous ZFPs are binding to their target sites in cellular chromatin. To investigate this question further, the expression of the endogenous VEGF gene was examined in cells containing exogenous VEGF 1 and VEGF 3a/1 proteins. Accordingly, the same samples that were analyzed in Examples 10 and 11 were assayed for endogenous VEGF MRNA (by real-time PCR analysis using reverse transcriptase-mediated PCR) and for VEGF protein (by ELISA). […] The apparent activation of the endogenous VEGF gene by the GATA 15.5 ZFP is explained by the data obtained in Example 14, infra.
The production of mRNA and protein from the endogenous VEGF gene was assayed as described in Example 13, and the results are shown in Table 9. […] The activation of the endogenous VEGF gene by GATA 15.5 is consistent with the ability of this protein to immunoprecipitate endogenous VEGF sequences (Table 7).

For series [4] the target is unchanged. Put plainly: ChIP anti-FLAG, 293 cells, GAPDH-normalized. How it is done: as §1, §2
Series [5] has as its target BOS 3 fusion (NLS-ZFP-KRAB-FLAG) (synthetic construct). Put plainly: ChIP anti-FLAG, MCF-7 cells, amplicon 230 bp upstream of site. To be noted: tags: NLS, KRAB repression domain. The method, then:
The sonicated lysate was centrifuged at 13,000 rpm for 10 min at 4° C., and the supernatant was recovered. 1.8 ml of ChIP buffer (16.7 mM Tris-Cl, pH 8.1, 1.2 mM EDTA, 167 mM NaCl, 1.1% Triton X-100, 0.01% SDS, 0.5 mM PMSF, 20 ug/ml aprotinin, 20 ug/ml pepstatin, 20 ug/ml leupeptin) was added to the cleared supernatant and 0.2 ml was removed as a pre-immunoprecipitation (pre-IP) input control. The input control sample was analyzed by agarose gel electrophoresis to verify that DNA fragments of 200-500 nucleotide pairs had been obtained.
The remainder of the sonicated lysate was pre-cleared by adding 0.1 ml of a 50% slurry of Protein A agarose beads (also containing salmon sperm DNA at 200 ug/ml), followed by gentle agitation for 90 min. The lysate was separated from the beads by centrifugation at 1,000 xg for 5 min at 4° C. The cleared lysate was divided into two equal portions. […]
Immune complexes were eluted from the beads by washing them twice with 0.25 ml of 1% SDS, 0.1 M NaHCO₃. […] The purified DNA was analyzed by real-time quantitative PCR, an assay known colloquially as “Taqman®.” The DNA was analyzed for the relative proportion of two sequences: (1) a region located 230 nucleotide pairs upstream of the BOS 3 binding site, and (2) a control sequence from the 18S rRNA gene.

BOS 3 fusion (NLS-ZFP-KRAB-FLAG) (synthetic construct), sequence (chain, as listed by the source): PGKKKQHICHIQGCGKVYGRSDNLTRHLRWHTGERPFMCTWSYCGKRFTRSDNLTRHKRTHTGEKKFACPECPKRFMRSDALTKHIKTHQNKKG

B1: pGL-VFR integrated reporter, VEGF 3a/1 target (four tandem copies) (dsDNA)
DNA 1: GGGGAGGATCGCGGAGGCTT
DNA 2: AAGCCTCCGCGATCCTCCCC
In series [1], B1 registered an activity of 2.7 fold luciferase vs NVF. In series [2], this molecule showed a binding signal of 10.7 fold enrichment vs NVF.

B2: endogenous VEGF-A gene target at +1 accessible region (dsDNA)
DNA 1: GGGGAGGATCGCGGAGGCTT
DNA 2: AAGCCTCCGCGATCCTCCCC
In series [3], B2 came in with an activity of 3.2 fold VEGF mRNA vs NVF. Further, in series [4], the binding signal was found to be 4.1 fold enrichment vs NVF.

B3: endogenous ER-alpha gene BOS 3 site, -2 kb hypersensitive region (dsDNA)
DNA 1: GGGGAGGAG
DNA 2: CTCCTCCCC
As for B3, the binding signal in series [5] was ~20 fold enrichment vs cells without BOS3.
